Laboratory results taken from the supplement of paper PMC12042874.
± gives the uncertainty stated by the source.

Assay: amyloid nucleation score (Sup35N fusion, yeast selection) (log enrichment); library NNK3; higher = more nucleation; inactive = no reads after selection
Summary of the method: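 The nucleation score is a DiMSum log enrichment of output over input reads, centred on the mode score of non-aggregating sequences. Sequences under 100 input reads were excluded, and reads came from Illumina sequencing of plasmid inserts. Psi-negative yeast expressing Sup35N fused to peptides of 20 random codons were induced with 100 μM copper sulfate for 24 hours and grown 7 days at 30°C on medium lacking adenine and uracil. Random libraries had three technical output replicates.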

Substance | amyloid nucleation score
SSIAMHCILIVFLKGLCVFR | inactive
SSIDEIGSFV | inactive
SSIGVGSFCSVRCLYDHDTS | inactive
SSIHH | inactive
SSITRGLHVRKTSVSTLGV | inactive
SSIWSGMSLFGFREIMSYVI | inactive
SSKLFL | inactive
SSKSWLRYRVDEHTVSTFGF | inactive
SSLCYTHRACTCNFTKVDSF | inactive
SSLGSETRFSYKRVHIENWR | -0.97 ± 0.9
SSLLANRYVWLDKLRHWHWR | inactive
SSMAVQRGGNYITMIYGH | inactive
SSPYDCSVNYLKNVSPRTLY | inactive
SSQFTHEETGFCDVVPVVCG | inactive
SSRRYS | inactive
SSRVVAWLSFNGSIICLFTF | inactive
SSSSMFALLPICY | inactive
SSSTANYLSIKFSLSLLKYN | 0.905 ± 0.14
SSSVRMRCSCISLASNKCAY | 1.26 ± 0.12
SSTCTDL | inactive
SSTNSYTSSLVSVSLVGDGA | inactive
SSTRIMNISVSRWSEMDKPD | inactive
SSVEHWPQNVFNRYFLYGVY | inactive
SSVSFQLEVCNQNVLYGIKI | inactive
SSWPN | inactive
SSYAYMRVCAFKVVEMVYWR | inactive
SSYFYHNVILPTHIYNFSVI | 2.27 ± 0.08

Substance | amyloid nucleation score
SSYLGECVKRPDPPRISKTL | inactive
SSYSVVFEQ | inactive
SSYVQFYLGWLGRYCNGSYV | inactive
STAWALAIAAVDRNFDSGWW | 0.009 ± 1.1
STGRRPTWATQRLWLWRQQL | -0.091 ± 0.87
STKPFSYYCLRYHRTVTALL | inactive
STLNGGSWVMIYAEDLTS | inactive
STMHELYV | inactive
STNPPNRL | inactive
STRFMVIFDGISSVIGAIYG | inactive
STVKVSLYQNQYPNGFNS | 1.66 ± 0.089
STVTDTYRLDTWTTWETDRG | 1.98 ± 0.095
STYLGDVSLSFVRVWSVNGS | 1.29 ± 0.078
SVARNSHYATLHKELQHVMY | inactive
SVDFVIPGSVKSVRFVVELV | inactive
SVDVYRSCEVGKCGGSYSTF | inactive
SVGFVHFVNTGDQKYERRVD | inactive
SVIVKAKASTVGDMQAKCRI | 1.1 ± 0.15
SVKLKLGLCFPLYVSGFGLL | inactive
SVLHMWNLRVVLHECYVYHI | inactive
SVLIFTMKDFLGEIFINVPT | 1.89 ± 0.092
SVLRYE | inactive
SVLSLLLCYRCSRL | -0.081 ± 0.98
SVLSVV | inactive
SVLVIFVLLSIGSAVKLNYG | inactive
SVNFELYDMITRC | inactive
SVNIMRSLIWH | inactive

Substance | amyloid nucleation score
SVRLTIEMVTAVFRWGESMR | 0.233 ± 0.32
SVSPCSTHFLMSFERYVRGT | inactive
SVSSLRYY | inactive
SVSSRHSAW | inactive
SVSSYAICVEACNYFRSRLV | inactive
SVVEPRRTGTWNSTGVRSQH | inactive
SVVFLLRIAWYWGLWIVLLL | inactive
SVWESHVWHAHTQI | inactive
SVYFFQGTL | 1.29 ± 0.084
SWGFHEWSVACQICRYVDRP | inactive
SWGNHYLRGLICYFLLFTDT | inactive
SWIVRLWCVMWNNLFVFIRN | inactive
SWLIR | inactive
SWMVQLVNTGVRWLVLANDA | inactive
SWPSASSFDSR | inactive
SWRLYMMA | inactive
SWSGCGLVPSSVSWGYGTCV | -0.47 ± 1.9
SWSTSNVVLNL | 1.99 ± 0.072
SWTSVSFRRMLMDSSR | inactive
SWYDHWSLIQDGLKRVNGG | inactive
SYANIWVIHKLDGFMESSLL | inactive
SYGHLQILKVMAIPSYAFPK | inactive
SYGVGWVYTEFGNLLRSFGL | inactive
SYLQQLDLSRDGTVLLKSGI | inactive
SYLYLCRIKVDLPFWSDRLV | inactive
